B1: Relaxin-3 (Homo sapiens), Q8WXF3 (parent)
chain: MARYMLLLLLAVWVLTGELWPGAEARAAPYGVRLCGREFIRAVIFTCGGSRWRRSDILAHEAMGDTFPDADADEDSLAGELDEAMGSSEWLALTKSPQAFYRGRPSWQGTPGVLRGSRDVLAGLSSSCCKWGCSKSEISSLC

Variants of: B1
Settings: with rl3r2_human RXFP4, Q8TDU9
rl3r2_human RXFP4, Q8TDU9, sequence (Q8TDU9 whole entry): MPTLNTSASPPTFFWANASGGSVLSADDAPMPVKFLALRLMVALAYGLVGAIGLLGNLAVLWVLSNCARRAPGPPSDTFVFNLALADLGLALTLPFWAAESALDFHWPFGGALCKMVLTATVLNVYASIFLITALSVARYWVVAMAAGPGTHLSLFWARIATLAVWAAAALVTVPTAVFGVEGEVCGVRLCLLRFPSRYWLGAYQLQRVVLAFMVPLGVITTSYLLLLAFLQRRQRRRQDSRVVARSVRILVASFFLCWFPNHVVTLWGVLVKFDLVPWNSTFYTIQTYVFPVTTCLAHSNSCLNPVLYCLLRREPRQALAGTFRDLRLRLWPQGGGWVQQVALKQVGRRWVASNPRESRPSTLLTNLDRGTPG

| Variant | effect of a mutation on the interaction |
| --- | --- |
| MARYMLLLLLAVWVLTGELWPGAEARAAPYGVRLCGEEFIRAVIFTCGGSRWRRSDILAHEAMGDTFPDADADEDSLAGELDEAMGSSEWLALTKSPQAFYRGRPSWQGTPGVLRGSRDVLAGLSSSCCKWGCSKSEISSLC | decreasing interaction |

Variants of: B1
Settings: with rl3r2_human RXFP4, Q8TDU9
Remark: another data set of the same source

| Variant | effect of a mutation on the interaction |
| --- | --- |
| MARYMLLLLLAVWVLTGELWPGAEARAAPYGVRLCGEEFIRAVIFTCGGSRWRRSDILAHEAMGDTFPDADADEDSLAGELDEAMGSSEWLALTKSPQAFYRGRPSWQGTPGVLRGSRDVLAGLSSSCCKWGCSKSEISSLC | increasing interaction |

Variants of: B1
Settings: with rl3r2_human RXFP4, Q8TDU9
Remark: another data set of the same source

| Variant | effect of a mutation on the interaction |
| --- | --- |
| MARYMLLLLLAVWVLTGELWPGAEARAAPYGVRLCGREFIEAVIFTCGGSRWRRSDILAHEAMGDTFPDADADEDSLAGELDEAMGSSEWLALTKSPQAFYRGRPSWQGTPGVLRGSRDVLAGLSSSCCKWGCSKSEISSLC | decreasing interaction |

Variants of: B1
Settings: with rl3r2_human RXFP4, Q8TDU9
Remark: another data set of the same source

| Variant | effect of a mutation on the interaction |
| --- | --- |
| MARYMLLLLLAVWVLTGELWPGAEARAAPYGVRLCGREFIEAVIFTCGGSRWRRSDILAHEAMGDTFPDADADEDSLAGELDEAMGSSEWLALTKSPQAFYRGRPSWQGTPGVLRGSRDVLAGLSSSCCKWGCSKSEISSLC | increasing interaction |

Variants of: B1
Settings: with rl3r2_human RXFP4, Q8TDU9
Remark: another data set of the same source

| Variant | effect of a mutation on the interaction |
| --- | --- |
| MARYMLLLLLAVWVLTGELWPGAEARAAPYGVRLCGREFIRAVIFTCGGSEWRRSDILAHEAMGDTFPDADADEDSLAGELDEAMGSSEWLALTKSPQAFYRGRPSWQGTPGVLRGSRDVLAGLSSSCCKWGCSKSEISSLC | decreasing interaction |

Variants of: B1
Settings: with rl3r2_human RXFP4, Q8TDU9
Remark: another data set of the same source

| Variant | effect of a mutation on the interaction |
| --- | --- |
| MARYMLLLLLAVWVLTGELWPGAEARAAPYGVRLCGREFIRAVIFTCGGSEWRRSDILAHEAMGDTFPDADADEDSLAGELDEAMGSSEWLALTKSPQAFYRGRPSWQGTPGVLRGSRDVLAGLSSSCCKWGCSKSEISSLC | increasing interaction |

— IntAct's records for PubMed 24802387
